How the values were obtained:
HeLa Kyoto [1] = assay: solubility in G1/S (NP-40 vs SDS abundance) (log2 ratio); higher = more soluble; conditions: cell cycle stage: G1/S
HeLa Kyoto [2] = assay: melting temperature (median over replicates), in situ; higher = more thermally stable
HeLa Kyoto [3] = assay: solubility change mitosis vs G1/S (difference of NP-40 vs SDS log2 ratios) (log2 ratio difference); higher = more soluble in mitosis
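Throughout, for melting temperature (median over replicates), in situ: HeLa Kyoto cells synchronized by double thymidine or nocodazole block, proteins quantified by TMT10plex mass spectrometry, three independent biological replicates.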
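Throughout, for solubility change mitosis vs G1/S (difference of NP-40 vs SDS log2 ratios): synchronized HeLa Kyoto cells (double thymidine block for G1/S, nocodazole release for mitosis), protein amounts in NP-40 versus SDS lysates quantified by mass spectrometry, three biological replicates.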
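Throughout, for solubility in G1/S (NP-40 vs SDS abundance): HeLa Kyoto cells arrested at G1/S by double thymidine block, proteins quantified by TMT10plex mass spectrometry in mild NP-40 versus SDS extracts, three biological replicates.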

STAT2, sequence (chain, as listed by the source): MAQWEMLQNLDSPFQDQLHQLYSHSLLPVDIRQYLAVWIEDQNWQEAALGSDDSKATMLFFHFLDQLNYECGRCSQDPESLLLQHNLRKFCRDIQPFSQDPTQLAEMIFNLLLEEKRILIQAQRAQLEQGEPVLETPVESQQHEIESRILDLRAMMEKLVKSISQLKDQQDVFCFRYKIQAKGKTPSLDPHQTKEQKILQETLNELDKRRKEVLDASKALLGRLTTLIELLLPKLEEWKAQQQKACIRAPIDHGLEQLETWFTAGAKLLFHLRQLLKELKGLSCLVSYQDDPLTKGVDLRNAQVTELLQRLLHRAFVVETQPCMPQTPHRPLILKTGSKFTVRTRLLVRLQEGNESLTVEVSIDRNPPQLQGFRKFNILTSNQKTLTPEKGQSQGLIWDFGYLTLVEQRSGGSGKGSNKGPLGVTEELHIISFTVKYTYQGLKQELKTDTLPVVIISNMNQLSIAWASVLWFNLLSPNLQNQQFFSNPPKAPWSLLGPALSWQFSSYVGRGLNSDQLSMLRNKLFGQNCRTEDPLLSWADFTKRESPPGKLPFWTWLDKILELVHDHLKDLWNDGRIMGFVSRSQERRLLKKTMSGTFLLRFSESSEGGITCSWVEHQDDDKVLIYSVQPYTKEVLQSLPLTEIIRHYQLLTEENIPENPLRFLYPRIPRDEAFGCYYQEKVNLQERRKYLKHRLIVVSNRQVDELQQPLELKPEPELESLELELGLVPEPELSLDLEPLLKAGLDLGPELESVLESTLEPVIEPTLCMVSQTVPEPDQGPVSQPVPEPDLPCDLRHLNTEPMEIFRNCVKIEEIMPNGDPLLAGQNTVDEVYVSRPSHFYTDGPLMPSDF

| Substance | solubility in G1/S (log2) (HeLa Kyoto [1]) | melting temperature (HeLa Kyoto [2]; cell cycle stage: G1/S) | melting temperature (HeLa Kyoto [2]; cell cycle stage: mitosis) | solubility change mitosis (log2) (HeLa Kyoto [3]) |
| --- | --- | --- | --- | --- |
| MAARGRRAEPQGREAPGPAGGGGGGSRWAESGSGTSPESGDEEVSGAGSSPVSGGVNLFANDGSFLELFKRKMEEEQRQRQEEPPPGPQRPDQSAAAAGPGDPKRKGGPGSTLSFVGKRRGGNKLALKTGIVAKKQKTEDEVLTSKGDAWAKYMAEVKKYKAHQCGDDDKTRPLVK [C19ORF43] | 0.0485 | 54.8 °C | 51.3 °C | 0.898 |
| CEP250 | -0.0371 | 51 °C | 50.8 °C | 0.272 |
| MVNPGSSSQPPPVTAGSLSWKRCAGCGGKIADRFLLYAMDSYWHSRCLKCSCCQAQLGDIGTSCYTKSGMILCRNDYIRLFGNSGACSACGQSIPASELVMRAQGNVYHLKCFTCSTCRNRLVPGDRFHYINGSLFCEHDRPTALINGHLNSLQSNPLLPDQKVC [LMO4] | -0.938 | 52.8 °C | – | -0.0181 |
| MASYYEILDVPRSASADDIKKAYRRKALQWHPDKNPDNKEFAEKKFKEVAEAYEVLSDKHKREIYDRYGREGLTGTGTGPSRAEAGSGGPGFTFTFRSPEEVFREFFGSGDPFAELFDDLGPFSELQNRGSRHSGPFFTFSSSFPGHSDFSSSSFSFSPGAGAFRSVSTSTTFVQGRRITTRRIMENGQERVEVEEDGQLKSVTINGVPDDLALGLELSRREQQPSVTSRSGGTQVQQTPASCPLDSDLSEDEDLQLAMAYSLSEMEAAGKKPAGGREAQHRRQGRPKAQHQDPGLGGTQEGARGEATKRSPSPEEKASRCLIL [DNAJB2] | 0.0895 | 50.2 °C | 50.5 °C | 0.274 |
| MAVAIAAARVWRLNRGLSQAALLLLRQPGARGLARSHPPRQQQQFSSLDDKPQFPGASAEFIDKLEFIQPNVISGIPIYRVMDRQGQIINPSEDPHLPKEKVLKLYKSMTLLNTMDRILYESQRQGRISFYMTNYGEEGTHVGSAAALDNTDLVFGQYREAGVLMYRDYPLELFMAQCYGNISDLGKGRQMPVHYGCKERHFVTISSPLATQIPQAVGAAYAAKRANANRVVICYFGEGAASEGDAHAGFNFAATLECPIIFFCRNNGYAISTPTSEQYRGDGIAARGPGYGIMSIRVDGNDVFAVYNATKEARRRAVAENQPFLIEAMTYRIGHHSTSDDSSAYRSVDEVNYWDKQDHPISRLRHYLLSQGWWDEEQEKAWRKQSRRKVMEAFEQAERKPKPNPNLLFSDVYQEMPAQLRKQQESLARHLQTYGEHYPLDHFDK [BCKDHA] | 0.0962 | 52.2 °C | 52.2 °C | -0.0598 |
| MASQNRDPAATSVAAARKGAEPSGGAARGPVGKRLQQELMTLMMSGDKGISAFPESDNLFKWVGTIHGAAGTVYEDLRYKLSLEFPSGYPYNAPTVKFLTPCYHPNVDTQGNICLDILKEKWSALYDVRTILLSIQSLLGEPNIDSPLNTHAAELWKNPTAFKKYLQETYSKQVTSQEP [UBE2C] | -0.443 | – | 49.9 °C | 0.955 |
| MGEDAAQAEKFQHPGSDMRQEKPSSPSPMPSSTPSPSLNLGNTEEAIRDNSQVNAVTVLTLLDKLVNMLDAVQENQHKMEQRQISLEGSVKGIQNDLTKLSKYQASTSNTVSKLLEKSRKVSAHTRAVKERMDRQCAQVKRLENNHAQLLRRNHFKVLIFQEENEIPASVFVKQPVSGAVEGKEELPDENKSLEETLHTVDLSSDDDLPHDEEALEDSAEEKVEESRAEKIKRSSLKKVDSLKKAFSRQNIEKKMNKLGTKIVSVERREKIKKSLTSNHQKISSGKSSPFKVSPLTFGRKKVREGESHAENETKSEDLPSSEQMPNDQEEESFAEGHSEASLASALVEGEIAEEAAEKATSRGSNSGMDSNIDLTIVEDEEEESVALEQAQKVRYEGSYALTSEEAERSDGDPVQPAVLQVHQTS [SDPR] | -0.0681 | 53.9 °C | 53.4 °C | 0.043 |
| MSQAEFEKAAEEVRHLKTKPSDEEMLFIYGHYKQATVGDINTERPGMLDFTGKAKWDAWNELKGTSKEDAMKAYINKVEELKKKYGI [DBI] | -0.236 | 53.7 °C | 53.8 °C | 0.148 |
| MAASTASHRPIKGILKNKTSTTSSMVASAEQPRGNVDEELSKKSQKWDEMNILATYHPADKDYGLMKIDEPSTPYHSMMGDDEDACSDTEATEAMAPDILARKLAAAEGLEPKYRIQEQESSGEEDSDLSPEEREKKRQFEMKRKLHYNEGLNIKLARQLISKDLHDDDEDEEMLETADGESMNTEESNQGSTPSDQQQNKLRSS [PPP1R2] | 0.172 | 59.3 °C | 52.4 °C | 0.383 |
| MNNLNDPPNWNIRPNSRADGGDGSRWNYALLVPMLGLAAFRWIWSRESQKEVEKEREAYRRRTAAFQQDLEAKYHAMISENRRAVAQLSLELEKEQNRTASYREALISQGRKLVEEKKLLEQERAQVMQEKRQVQPLRSAYLSCLQREENWQRRARLLLKEFEAVLTERQNIYCSLFLPRSKRLEIEKSLLVRASVDPVAADLEMAAGLTDIFQHDTYCGDVWNTNKRQNGRLMWLYLKYWELVVELKKFKRVEEAILEK [CCDC127] | 0.0789 | 54 °C | 52.5 °C | 0.115 |
| MSDLEDDETPQLSAHALAALQEFYAEQKQQIEPGEDDKYNIGIIEENWQLSQFWYSQETALQLAQEAIAAVGEGGRIACVSAPSVYQKLRELCRENFSIYIFEYDKRFAMYGEEFIFYDYNNPLDLPERIAAHSFDIVIADPPYLSEECLRKTSETVKYLTRGKILLCTGAIMEEQAAELLGVKMCTFVPRHTRNLANEFRCYVNYDSGLDCGI [N6AMT2] | -0.331 | – | 50.6 °C | 0.0973 |
| ZNF318 | -0.136 | 46.2 °C | 49.2 °C | -0.0151 |
| STAT2 | -0.0132 | 49.1 °C | 50.9 °C | -0.0626 |
| MSVQSSSGSLEGPPSWSQLSTSPTPGSAAAARSLLNHTPPSGRPREGAMDELHSLDPRRQELLEARFTGVASGSTGSTGSCSVGAKASTNNESSNHSFGSLGSLSDKESETPEKKQSESSRGRKRKAENQNESSQGKSIGGRGHKISDYFEYQGGNGSSPVRGIPPAIRSPQNSHSHSTPSSSVRPNSPSPTALAFGDHPIVQPKQLSFKIIQTDLTMLKLAALESNKIQDLEKKEGRIDDLLRANCDLRRQIDEQQKLLEKYKERLNKCISMSKKLLIEKSTQEKLSSREKSMQDRLRLGHFTTVRHGASFTEQWTDGFAFQNLVKQQEWVNQQREDIERQRKLLAKRKPPTANNSQAPSTNSEPKQRKNKAVNGAENDPFVRPNLPQLLTLAEYHEQEEIFKLRLGHLKKEEAEIQAELERLERVRNLHIRELKRINNEDNSQFKDHPTLNERYLLLHLLGRGGFSEVYKAFDLYEQRYAAVKIHQLNKSWRDEKKENYHKHACREYRIHKELDHPRIVKLYDYFSLDTDTFCTVLEYCEGNDLDFYLKQHKLMSEKEARSIVMQIVNALRYLNEIKPPIIHYDLKPGNILLVDGTACGEIKITDFGLSKIMDDDSYGVDGMDLTSQGAGTYWYLPPECFVVGKEPPKISNKVDVWSVGVIFFQCLYGRKPFGHNQSQQDILQENTILKATEVQFPVKPVVSSEAKAFIRRCLAYRKEDRFDVHQLANDPYLLPHMRRSNSSGNLHMAGLTASPTPPSSSIITY [TLK1] | 0.061 | 50.1 °C | 53.3 °C | -0.0453 |
| MRRAWILLTLGLVACVSAESRAELTSDKDMYLDNSSIEEASGVYPIDDDDYASASGSGADEDVESPELTTSRPLPKILLTSAAPKVETTTLNIQNKIPAQTKSPEETDKEKVHLSDSERKMDPAEEDTNVYTEKHSDSLFKRTEVLAAVIAGGVIGFLFAIFLILLLVYRMRKKDEGSYDLGERKPSSAAYQKAPTKEFYA [SDC2] | -0.422 | 55.6 °C | 59.2 °C | -0.902 |
| MEESEPERKRARTDEVPAGGSRSEAEDEDDEDYVPYVPLRQRRQLLLQKLLQRRRKGAAEEEQQDSGSEPRGDEDDIPLGPQSNVSLLDQHQHLKEKAEARKESAKEKQLKEEEKILESVAEGRALMSVKEMAKGITYDDPIKTSWTPPRYVLSMSEERHERVRKKYHILVEGDGIPPPIKSFKEMKFPAAILRGLKKKGIHHPTPIQIQGIPTILSGRDMIGIAFTGSGKTLVFTLPVIMFCLEQEKRLPFSKREGPYGLIICPSRELARQTHGILEYYCRLLQEDSSPLLRCALCIGGMSVKEQMETIRHGVHMMVATPGRLMDLLQKKMVSLDICRYLALDEADRMIDMGFEGDIRTIFSYFKGQRQTLLFSATMPKKIQNFAKSALVKPVTINVGRAGAASLDVIQEVEYVKEEAKMVYLLECLQKTPPPVLIFAEKKADVDAIHEYLLLKGVEAVAIHGGKDQEERTKAIEAFREGKKDVLVATDVASKGLDFPAIQHVINYDMPEEIENYVHRIGRTGRSGNTGIATTFINKACDESVLMDLKALLLEAKQKVPPVLQVLHCGDESMLDIGGERGCAFCGGLGHRITDCPKLEAMQTKQVSNIGRKDYLAHSSMDF [DDX41] | -0.425 | 47.5 °C | 49 °C | 0.325 |
| MMLSRAKPAVGRGVQHTDKRKKKGRKIPKLEELLSKRDFTGAITLLEFKRHVGEEEEDTNLWIGYCAFHLGDYKRALEEYENATKEENCNSEVWVNLACTYFFLGMYKQAEAAGFKASKSRLQNRLLFHLAHKFNDEKKLMSFHQNLQDVTEDQLSLASIHYMRSHYQEAIDIYKRILLDNREYLALNVYVALCYYKLDYYDVSQEVLAVYLQQIPDSTIALNLKACNHFRLYNGRAAEAELKSLMDNASSSFEFAKELIRHNLVVFRGGEGALQVLPPLVDVIPEARLNLVIYYLRQDDVQEAYNLIKDLEPTTPQEYILKGVVNAALGQEMGSRDHMKIAQQFFQLVGGSASECDTIPGRQCMASCFFLLKQFDDVLIYLNSFKSYFYNDDIFNFNYAQAKAATGNTSEGEEAFLLIQSEKMKNDYIYLSWLARCYIMNKKPRLAWELYLKMETSGESFSLLQLIANDCYKMGQFYYSAKAFDVLERLDPNPEYWEGKRGACVGIFQMIIAGREPKETLREVLHLLRSTGNTQVEYMIRIMKKWAKENRVSI [TTC26] | -0.122 | – | – | -0.0547 |

Reference: the supplement of paper PMC5998384
